The RNAGym collection of RNA variant scans (doi:10.7554/elife.80360)

B1: Hairpin Ribozyme (parent)
chain: GUCCUCUUUCACGUGCGCGUGAAAGAGAGAAGUGAACCAGAGAAACACACGUUGUGGUAUAUUACCUGGUA

Variants of: B1
Test: self-cleavage, relative activity (ratio to wild type); higher = more cleavage; co-transcriptional
Work on G1C G15C yielded a self-cleavage of 0.117.
Work on G1C G15U yielded a self-cleavage of 0.24.
Work on U2A U58G yielded a self-cleavage of 0.161.
Work on U2A U58C yielded a self-cleavage of 0.21.
Variant U2C U53C has a self-cleavage of 0.0859.
In the case of U2C U53G, the self-cleavage is reported as 0.0768.
U2A U14G gave a self-cleavage of 0.235.
For U2A U14A, the self-cleavage was 0.174.
Variant U2C G25U has a self-cleavage of 0.134.
For U2C G25A, the self-cleavage was 0.195.
Variant G1U A43G has a self-cleavage of 0.0972.
With G1U A43C the self-cleavage was 0.169.
In the case of G1U A43U, the self-cleavage is reported as 0.142.
U2A G42A showed a self-cleavage of 0.107.
U2G A30G showed a self-cleavage of 0.0671.
G1U G17C gave a self-cleavage of 0.112.
Variant G1U G17A has a self-cleavage of 0.2.
Variant G1U C3U has a self-cleavage of 0.255.
U2G A47U gave a self-cleavage of 0.0492.
U2G A41C showed a self-cleavage of 0.566.
Variant U2A A30C has a self-cleavage of 0.162.
Variant G1C U7A has a self-cleavage of 0.229.
G1C U7C showed a self-cleavage of 0.488.
Work on U2C C46U yielded a self-cleavage of 0.133.
With G1U U70G the self-cleavage was 0.0694.
Variant G1U U70A has a self-cleavage of 0.111.
Variant U2C G19U has a self-cleavage of 0.161.
U2G C37A showed a self-cleavage of 0.131.
With U2G C37U the self-cleavage was 0.319.
U2C C50U gave a self-cleavage of 0.252.
G1U A11C gave a self-cleavage of 0.0545.
G1C U67G showed a self-cleavage of 0.0946.
For U2G A24G, the self-cleavage was 0.293.
With U2G A24U the self-cleavage was 0.238.
Work on U2G A24C yielded a self-cleavage of 0.293.
Work on U2G C50U yielded a self-cleavage of 0.157.
For U2G C50G, the self-cleavage was 0.1.
Variant U2A C37A has a self-cleavage of 0.161.
For U2G A71G, the self-cleavage was 0.307.
For U2G A26G, the self-cleavage was 0.277.
With G1U G13A the self-cleavage was 0.0563.
With U2C U9C the self-cleavage was 0.139.
In the case of U2C U9A, the self-cleavage is reported as 0.109.
In the case of U2C U9G, the self-cleavage is reported as 0.0171.
With U2C U55C the self-cleavage was 0.0641.
Work on U2C U55G yielded a self-cleavage of 0.0647.
U2G C46A showed a self-cleavage of 0.121.
U2G G34C gave a self-cleavage of 0.736.
G1U U33C gave a self-cleavage of 0.173.
In the case of G1C U60G, the self-cleavage is reported as 0.0347.
With G1C U60A the self-cleavage was 0.123.
U2C A45U showed a self-cleavage of 0.0729.
Work on U2C C66G yielded a self-cleavage of 0.0316.
U2C C66A showed a self-cleavage of 0.0248.
In the case of G1C C66G, the self-cleavage is reported as 0.0728.
G1C U8G gave a self-cleavage of 0.216.
In the case of G1C G19U, the self-cleavage is reported as 0.194.
With G1C G19C the self-cleavage was 0.0663.
For G1C U58C, the self-cleavage was 0.16.
With U2G U9C the self-cleavage was 0.231.
With U2G G21A the self-cleavage was 0.265.
Variant G1C G21C has a self-cleavage of 0.378.
U2C C37A gave a self-cleavage of 0.0991.
Work on U2C G29C yielded a self-cleavage of 0.16.
U2C G29U showed a self-cleavage of 0.0528.
For U2C A41C, the self-cleavage was 0.0362.
Work on U2A A71G yielded a self-cleavage of 0.405.
U2G U7C showed a self-cleavage of 0.384.
U2G U7A gave a self-cleavage of 0.255.
U2G U7G gave a self-cleavage of 0.35.
G1U A39U gave a self-cleavage of 0.0669.
Work on G1U A39C yielded a self-cleavage of 0.118.
G1U G19C gave a self-cleavage of 0.105.
With G1U G19U the self-cleavage was 0.134.
Work on G1U G42A yielded a self-cleavage of 0.121.
Work on G1U G42C yielded a self-cleavage of 0.0939.
Work on G1U G42U yielded a self-cleavage of 0.162.
U2G G29A showed a self-cleavage of 0.168.
With G1C U9C the self-cleavage was 0.198.
Variant G1U G56A has a self-cleavage of 0.127.
G1U A71U showed a self-cleavage of 0.167.
Work on U2A G57U yielded a self-cleavage of 0.109.
U2C U62C gave a self-cleavage of 0.203.
In the case of G1C U33C, the self-cleavage is reported as 0.134.
With G1C U33G the self-cleavage was 0.228.
With U2A G25A the self-cleavage was 0.259.
For U2G G69C, the self-cleavage was 0.0755.
Variant U2A A26C has a self-cleavage of 0.311.
G1C G42A gave a self-cleavage of 0.148.
For G1C G42U, the self-cleavage was 0.145.
In the case of U2C C18G, the self-cleavage is reported as 0.154.
Work on U2C C18A yielded a self-cleavage of 0.118.
Variant G1U C66U has a self-cleavage of 0.0959.
In the case of U2C A49U, the self-cleavage is reported as 0.141.
U2A U5A showed a self-cleavage of 0.137.
Work on U2A U5C yielded a self-cleavage of 0.137.
Variant U2C U70C has a self-cleavage of 0.16.
In the case of U2C U70G, the self-cleavage is reported as 0.269.
U2A G13U showed a self-cleavage of 0.186.
For U2G U60G, the self-cleavage was 0.278.
Work on U2C G34C yielded a self-cleavage of 0.208.
Work on U2C G34U yielded a self-cleavage of 0.316.
In the case of U2G A49U, the self-cleavage is reported as 0.053.
With G1U A30U the self-cleavage was 0.162.
Variant G1U A30C has a self-cleavage of 0.178.
With U2C G13C the self-cleavage was 0.121.
In the case of U2C G13U, the self-cleavage is reported as 0.121.
U2C G27C showed a self-cleavage of 0.153.
G1U C38A gave a self-cleavage of 0.154.
Work on U2C A59U yielded a self-cleavage of 0.108.
U2C G68U gave a self-cleavage of 0.161.
Variant U2A U20G has a self-cleavage of 0.201.
For G1C G32U, the self-cleavage was 0.171.
For U2G A36C, the self-cleavage was 0.208.
With U2G A36G the self-cleavage was 0.274.
U2A A43C gave a self-cleavage of 0.114.
Work on U2A C4A yielded a self-cleavage of 0.165.
U2G A35U gave a self-cleavage of 0.27.
Work on G1C U20A yielded a self-cleavage of 0.175.
For G1C G51A, the self-cleavage was 0.343.
U2G G13A gave a self-cleavage of 0.338.
In the case of G1U A47G, the self-cleavage is reported as 0.046.
Work on G1U A47C yielded a self-cleavage of 0.107.
For U2C A64G, the self-cleavage was 0.123.
For U2G G19U, the self-cleavage was 0.336.
Variant G1U A28C has a self-cleavage of 0.0863.
Work on U2A A39C yielded a self-cleavage of 0.133.
With U2A A39G the self-cleavage was 0.0775.
In the case of U2A G27A, the self-cleavage is reported as 0.127.
In the case of U2A G27C, the self-cleavage is reported as 0.108.
For G1U G27C, the self-cleavage was 0.113.
Variant U2C G54C has a self-cleavage of 0.127.
In the case of U2G A23U, the self-cleavage is reported as 0.265.
With G1C G29U the self-cleavage was 0.129.
For U2C G51U, the self-cleavage was 0.172.
With U2C A23C the self-cleavage was 0.144.
In the case of U2G A59U, the self-cleavage is reported as 0.0332.
Variant U2G A59C has a self-cleavage of 0.223.
In the case of U2C G17C, the self-cleavage is reported as 0.168.
With U2C G17A the self-cleavage was 0.15.
Work on G1U U5G yielded a self-cleavage of 0.194.
U2G U33A gave a self-cleavage of 0.115.
In the case of U2A A11U, the self-cleavage is reported as 0.269.
Variant G1U G54U has a self-cleavage of 0.141.
For G1U G54A, the self-cleavage was 0.0766.
U2G C66G showed a self-cleavage of 0.124.
U2G A31C gave a self-cleavage of 0.0758.
In the case of U2G A31G, the self-cleavage is reported as 0.281.
For U2G A31U, the self-cleavage was 0.
In the case of U2A U55C, the self-cleavage is reported as 0.153.
For U2G C12G, the self-cleavage was 0.184.
G1U A45C gave a self-cleavage of 0.126.
For G1U A45U, the self-cleavage was 0.228.
For G1U A45G, the self-cleavage was 0.0992.
With U2A C65G the self-cleavage was 0.146.
With G1C G54C the self-cleavage was 0.072.
With G1C G54U the self-cleavage was 0.274.
Work on G1C C65G yielded a self-cleavage of 0.148.
For U2A C18U, the self-cleavage was 0.314.
Work on G1U U2C yielded a self-cleavage of 0.232.
U2A A41G gave a self-cleavage of 0.0798.
U2A A41C showed a self-cleavage of 0.379.
For U2G C48U, the self-cleavage was 0.117.
In the case of U2A G56U, the self-cleavage is reported as 0.179.
U2C G42A showed a self-cleavage of 0.0595.
For G1U A44U, the self-cleavage was 0.128.
U2A U33G showed a self-cleavage of 0.151.
